Test results as given in patent publication US20250340655A1, “EPHA2-TARGETING ANTIBODIES AND THEIR APPLICATIONS IN CANCER TREATMENT” (TAIPEI MEDICAL UNIVERSITY, priority 2022, published 2025).
Ends that are not written are not given here. BSA = bovine serum albumin carrier conjugated to the peptide

What was measured:
Mia PaCa-2 tumor = Mia PaCa-2 tumor xenograft model (IgG hSD5, gemcitabine); format: in vivo, mouse; conditions: Mia PaCa-2 xenograft
Procedure: (§1) The freshly prepared BxPc-3 and Mia PaCa-2 cancer cells were harvested during the log growth phase and resuspended in PBS for tumor implantation. Each NOD/SCID mouse was subcutaneously inoculated with cancer cells (5×10^6 to BxPc-3 and 1×10^7 to Mia PaCa-2) for tumor formation. The tumor size was measured twice weekly, and the volume was calculated as follows: V=0.5lw^2, where l=the length and w=the width. When the tumor size was approximately 100 mm3, animals were divided into groups that received (a) vehicle alone through intravenous injection (i.v.) once weekly (qwk), (b) control human IgG1 at 20 mg/kg through i.v. qwk, (c) and (d) hSD5 IgG1 at 2 or 20 mg/kg through i.v. qwk, (e) and (f) gemcitabine at 20 or 100 mg/kg through i.v. twice weekly (biw), or (g) hSD5 IgG1 at 2 mg/kg through i.v. qwk combined with gemcitabine at 20 mg/kg through i.v. biw. At the end of the experiment, the antitumor effects were quantified by dividing the tumor volumes in the treatment groups by those in the control groups and multiplying them by 100 to represent tumor growth inhibition (TGI; %). The mice were also examined frequently for overt signs of adverse drug-related side effects.
(§2) The pancreatic tissue microarray slide (US Biomax, PA483e) was used to detect and analyze the EphA2 expression of clinical samples. In the xenograft animal model, the excised BxPc-3 and Mia PaCa-2 tumors were fixed in formalin, embedded in paraffin, and sliced for immunohistochemical staining (IHC). Commercial antibodies (Cell signaling, Dako; Agilent Technologies; and Abcam) were used for staining the EphA2 molecule, cell proliferation marker Ki-67, and apoptosis marker cleaved caspase 3. The effects of staining were observed using a Zeiss Axioskop-2 microscope (Carl Zeiss).
(§3) Mia PaCa-2 xenograft mice was also used to determine the inhibitory effect of IgG hSD5 on in vivo tumor growth. Administration of IgG hSD5 (20 mg/kg, iv, qwk, indicated as blue filled inverted triangles) and Gemcitabine (100 mg/kg, iv, biw, indicated as orange filled squares) were used to test the inhibition effect on BxPc-3 tumor growth, n=6, TGI denotes Tumor growth inhibition. (FIG. 8A) Administration of IgG hSD5 (2 mg/kg, iv, qwk, indicated by solid black triangles), Gemcitabine (20 mg/kg, iv, biw, indicated by black open squares), and the experimental group that combined IgG and Gemcitabine treatment simultaneously (indicated by solid red diamonds) were used to teat the growth inhibitory effect of BxPc-3 on the tumor. (FIG. 8B) During treatments, the weight changes of each mouse group were tracked. (FIG. 8C) The expression levels of EphA2, cell proliferation marker Ki67, and apoptosis-related marker cleaved caspase3 in the excised tumor groups were analyzed by IHC staining. (FIG. 8D)

BxPc-3 tumor = BxPc-3 tumor xenograft model (IgG hSD5, gemcitabine); format: in vivo, mouse; conditions: BxPc-3 xenograft, iv
Procedure: as §1, §2
as §3, with “Administration” for “Mia PaCa-2 xenograft mice was also used to determine the inhibitory effect of IgG hSD5 on in vivo tumor growth. Administration”, “7A)” for “8A)”, “7B)” for “8B)”, “7C)” for “8C)”, “7D)” for “8D)”

[1] = molecular target: T1, recombinant EphA2 protein (UniProt P29317 24-537, limits assumed); assay: biolayer interferometry
T1 construct: Coated on ELISA plates, run on Native-PAGE and used in biolayer interferometry

[2] = molecular target: T2, EphA2pep_PIP2 (BSA-CGGGWDLMQNIMNDMPIYMYSVGGGGGGSVSSDFEARHV) (conjugated with BSA (printed BSA-C...)); assay: peptide ELISA on BSA-conjugated peptides
T2 construct: also called long peptide
T2 peptide: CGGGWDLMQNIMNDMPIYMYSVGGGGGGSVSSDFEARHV
Procedure: (§4) These peptides were synthesized and conjugated with BSA (Kelowna International Scientific). The BSA-conjugated peptides were individually coated on a 96-well microplate at 4° C. overnight. […] Next, an HRP-conjugated anti-HA tag antibody (Cell Signaling Technology) was used to detect bound scFv. Finally, the TMB substrate was added for development, and the reaction was stopped by adding 1 N HCl. Absorbance was measured by determining the OD at 450 nm. […] Blocking with 3% BSA was performed at RT for 1 h. […] After the membrane was washed, the HRP-conjugated anti-HA tag antibody was added, and the reaction was allowed to proceed for 1 h at RT. Lastly, DAB was used to initiate the coloration reaction.
(§5) The two short peptides located on the designed activation site of EphA2 are EphA2pep_P1 and EphA2pep_P2, respectively. The long peptide formed by linking the two short peptides is EphA2pep_PIP2. NCIpep and NC2pep are two irrelevant peptides as the negative control. EphA2 ECD is a recombinant EphA2 extracellular domain protein.

[3] = molecular target: T3, EphA2pep_P2 (BSA-CGGGGGGSVSSDFEARHV); assay: peptide ELISA on BSA-conjugated peptides
T3 peptide: {BSA}-CGGGGGGSVSSDFEARHV
Procedure: as §4, §5

[4] = molecular target: T4, EphA2pep_P1 (BSA-CGGGWDLMQNIMNDMPIYMYSV) (conjugated with BSA (printed BSA-C...)); assay: peptide ELISA on BSA-conjugated peptides
T4 peptide: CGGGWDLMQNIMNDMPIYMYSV
Procedure: as §4, §5

[5] = molecular target: T1, recombinant EphA2 protein; assay: ELISA, serially diluted scFv on coated recombinant EphA2
BxPc-3 cells = assay: Antibody internalization (endocytosis) assay; format: cell-based, human; conditions: BxPc-3, 1 h, 37° C. vs 4° C. (FIG. 6B)
Procedure: BxPc-3 cells were seeded on cover glasses placed in the wells of a 6-well culture plate. The BxPc-3 seeded glass slides were incubated with ephrin A1-Fc (Sino Biological) or IgG hSD5 for 1 h at 37° C. or 4° C. After washing with PBS, the cells were fixed with 100% ice methanol for 10 min. Next, the cells were stained with an FITC-conjugated anti-human Fc antibody and were subsequently mounted with ProLong Diamond Antifade Mountant comprising 4′,6-diamidino-2-phenylindole for nuclear counterstaining (Invitrogen). The cells were imaged using a confocal microscope (Leica Microsystems).

T1 sequence (P29317 24-537 limits assumed): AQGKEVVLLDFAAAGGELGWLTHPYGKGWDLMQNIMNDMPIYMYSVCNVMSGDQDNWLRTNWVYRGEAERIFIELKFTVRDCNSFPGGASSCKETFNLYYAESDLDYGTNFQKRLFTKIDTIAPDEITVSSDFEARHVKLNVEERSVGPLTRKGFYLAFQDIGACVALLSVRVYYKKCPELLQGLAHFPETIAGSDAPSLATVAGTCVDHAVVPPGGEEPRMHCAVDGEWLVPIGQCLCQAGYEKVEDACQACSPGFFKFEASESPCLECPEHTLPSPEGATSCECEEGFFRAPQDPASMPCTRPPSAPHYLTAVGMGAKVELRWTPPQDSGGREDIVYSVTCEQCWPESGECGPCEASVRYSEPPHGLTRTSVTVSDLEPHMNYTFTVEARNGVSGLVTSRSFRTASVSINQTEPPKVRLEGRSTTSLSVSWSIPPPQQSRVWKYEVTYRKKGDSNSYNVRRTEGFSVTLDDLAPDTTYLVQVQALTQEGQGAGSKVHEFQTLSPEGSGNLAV

Q: How did the “TGI (tumor growth inhibition)” value (Mia PaCa-2 tumor; 20 mg/kg gemcitabine) turn out when `Nc1ccn([C@@H]2O[C@H](CO)[C@@H](O)C2(F)F)c(=O)n1` [Gemcitabine, reference compound] was run?
A: 38.7%

Q: What about the “TGI (tumor growth inhibition)” value (Mia PaCa-2 tumor; 100 mg/kg) of the same molecule?
A: 73.7%

Q: And the “TGI (tumor growth inhibition)” value (BxPc-3 tumor; 20 mg/kg, biw)?
A: 34.6%

Q: And the “TGI (tumor growth inhibition)” value (BxPc-3 tumor; 100 mg/kg, qwk)?
A: 59.8%

B1: Humanized IgG hSD5 (antibody, V domains shown)
VH: QVQLVESGGGLVQPGGSLRLSCAASGFTFSDYGMGWVRQAPGKGLEWVAGISAAGSFTPYGAAVKGRFTISRDNSKNTVYLQMNSLRAEDTAVYYCARIPSGYRAGEIYTWGQGTLVTVSS
VL: LTQPPSVSVSPGQTVRITCSGSSGSYGWYQQKSPGQAPVTLIYDNDKRPSGIPERFSGSSSGSTSTLTISGVQAEDEADYYCGSADSSTYVGMFGGGTKLTVL
notes: also called hSD5 IgG; hSD5 IgG1
Q: B1 was tested. Which Kd [1] did it give?
A: 2.06 nM

Q: Does B1 bind [2]?
A: binds

Q: Does B1 bind [3]?
A: binds

Q: Does B1 bind [4]?
A: binds

B2: scFv SD5 (scFv)
scFv: LTQPSSVSANLGETVKIPCSGSSGSYGWYQQKSPGSAPVTLIYDNDKRPSDIPSRFFGSTSGSTSTLTITGVQAEDEAVYFCGSADSSTYVGMFGAGTTLTVLGQSSRSSTVTLDESGGGLQTPGGGLSLVCKASGFTFSDYGMGWVRQAPGKGLEFVAGISAAGSFTPYGAAVKGRATISRDNGQSTVRLQLNNLRSEDTGIYYCARIPSGYRAGEIYTWGQGTEVIVSS
notes: also called antibody SD5
Q: How did the EC50 [5] turn out when B2 was run?
A: 1.8 nM

B3: ephrin-A1: ligand of EphA2, recombinant, used as a positive control (protein)
chain: DRHTVFWNSSNPKFRNEDYTIHVQLNDYVDIICPHYEDHSVADAAMEQYILYLVEHEEYQLCQPQSKDQVRWQCNRPSAKHGPEKLSEKFQRFTPFTLGKEFKEGHSYYYISKPIHQHEDRCLRLKVTVSGKITHSPQAHDNPQEKRLAADDPEVRVLHSIGHS
modifications: left off: a dimerising Fc or GST
notes: ligand of EphA2, recombinant, used as a positive control
Q: Which “endocytosis after targeting EphA2” value (BxPc-3 cells) does the source give for B3 here?
A: endocytosed from the cell membrane into the cytoplasm
